Legend:
[1] = Cell lysate reaction of pMT enzymes with psi-ionone, irones quantified by HS-SPME-GCMS; assay type: biochemical; conditions: for in-vitro production of cis-α-irone (in words): single mutations vs parent (pMT7 or pMT12)
Method in brief: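 pMT1 site-saturation mutants were expressed in E. coli BL21(DE3) and lysed, and lysates were incubated 2 days at 28 °C with 0.2 mM SAM and 10 mg/L psi-ionone (plus caryophyllene) in 50 mM Tris pH 7, 10 mM MgCl2. Cis-α-irone was measured by HS-SPME-GCMS peak area and given as fold change over non-mutated enzyme.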

[2] = In-vivo cis-α-irone production screening of pMT7 and pMT12 mutants; assay type: cell-based, Escherichia coli; conditions: for Fold change in in-vivo cis-α-irone production: mutations made to pMT12, normalized to pMT12 (=1)
Method in brief: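 E. coli BL21(DE3) ΔaroA ΔaroB ΔaroC ΔserC strains, with or without ΔmetJ, carried the plasmids and were grown in 1 ml auto-inducing defined medium (glucose/glycerol, 30 mM lactose) at 28 °C for 3 days. Products were extracted into hexane and measured by GC-MS. Production is a semi-quantitative fold change relative to pMT12.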

[3] = Purified pMT7/pMT10 reaction with auxiliary enzymes mtn and mtaD; assay type: biochemical; conditions: 20 μM SAH introduced in the purified enzymatic reaction
Description: All the purified enzyme reactions were done in triplicates.
An alternative strategy to reduce SAH inhibition is to introduce auxiliary enzymes that degrade SAH12 (FIG. 18a). […] Noteworthy, with mtaD enzyme, cis-α-irone production by pMT10 was improved by ˜2.5 fold as compared to pMT10 reaction alone (FIG. 3c). […] This somewhat agrees with the effect of mutating D135, which abolishes the hydrogen bond interaction between pMT7 and the amine group of the adenine moiety.

| Molecule | Fold change in in-vivo cis-α-irone production [2] | in-vitro production of cis-α-irone (in words) [1] | other results |
| --- | --- | --- | --- |
| pMT12: pMT1 with Y200F S182E L273V L180A A202L Y65F C156D T91P N231D (protein, Modified from pMT1, pMT1 with Y200F S182E L273V L180A A202L Y65F C156D T91P N231D) MPQEARTPQQQVTADEVGDWYDKFGEVYHLTLGESVHCGLWFPPDAPVPQDMELVTMSSQAQDRFTDYLIETLDPKAGQHLLDIGCGTGRPALKAARQRGIAVTGVAVSKEQIAAANRLAAGHGLTERLTFEVADAMRLPYEDESFDCAWAIESLDHMDRAKALGEAWRVLKPGGDLLVAEEVVTEELTEPETALFETLFALNVPPRLGEFFDIVSGAGFHTLSLKDLSADLAMTMNVFALGVYSRRAEFTERFGAEFVDGLLAGLGSAQETVIRKTRFFMATLRKPAV | 1 | – | irone production / methyltransferase activity towards psi-ionone (in words) ([1]; cell lysate reaction, vs parent or control): maintained the percentage of cis-α-irone produced while further improving the absolute amount produced |
| Q60V: pMT7 with Q60V (protein, Modified from pMT1) MPQEARTPQQQVTADEVGDWYDKFGEVYHLTLGESVHCGLWFPPDAPVPQDMELVTMSSKAQDRFTDYLIETLDPKAGQHLLDIGCGTGRTALKAARQRGIAVTGVAVSKEQIAAANRLAAGHGLTERLTFEVADAMRLPYEDESFDCAWAIESLCHMDRAKALGEAWRVLKPGGDLLVAEEVVTEELTEPETALFETLFALNVPPRLGEFFDIVSGAGFHTLSLKDLSANLAMTMNVFALGVYSRRAEFTERFGAEFVDGLLAGLGSAQETVIRKTRFFMATLRKPAV | – | increased the cis-α-irone production in-vitro | in-vivo production of cis-α-irone (in words) ([2]; single mutations vs parent (pMT7 or pMT12)): increased cis-α-irone production in-vivo |
| E190A (protein, Modified from pMT1) MPQEARTPQQQVTADEVGDWYDKFGEVYHLTLGESVHCGLWFPPDAPVPQDMELVTMSSQAQDRFTDYLIETLDPKAGQHLLDIGCGTGRPALKAARQRGIAVTGVAVSKEQIAAANRLAAGHGLTERLTFEVADAMRLPYEDESFDCAWAIESLDHMDRAKALGEAWRVLKPGGDLLVAEEVVTEELTAPETALFETLFALNVPPRLGEFFDIVSGAGFHTLSLKDLSADLAMTMNVFALGVYSRRAEFTERFGAEFVDGLLAGLGSAQETVIRKTRFFMATLRKPAV | 1.12 | – | – |
| A95C: pMT12 with A95C (protein, Modified from pMT1) MPQEARTPQQQVTADEVGDWYDKFGEVYHLTLGESVHCGLWFPPDAPVPQDMELVTMSSQAQDRFTDYLIETLDPKAGQHLLDIGCGTGRPALKCARQRGIAVTGVAVSKEQIAAANRLAAGHGLTERLTFEVADAMRLPYEDESFDCAWAIESLDHMDRAKALGEAWRVLKPGGDLLVAEEVVTEELTEPETALFETLFALNVPPRLGEFFDIVSGAGFHTLSLKDLSADLAMTMNVFALGVYSRRAEFTERFGAEFVDGLLAGLGSAQETVIRKTRFFMATLRKPAV | 0.95 | moderate increase | – |
| F212L: pMT12 with F212L (protein, Modified from pMT1) MPQEARTPQQQVTADEVGDWYDKFGEVYHLTLGESVHCGLWFPPDAPVPQDMELVTMSSQAQDRFTDYLIETLDPKAGQHLLDIGCGTGRPALKAARQRGIAVTGVAVSKEQIAAANRLAAGHGLTERLTFEVADAMRLPYEDESFDCAWAIESLDHMDRAKALGEAWRVLKPGGDLLVAEEVVTEELTEPETALFETLFALNVPPRLGEFLDIVSGAGFHTLSLKDLSADLAMTMNVFALGVYSRRAEFTERFGAEFVDGLLAGLGSAQETVIRKTRFFMATLRKPAV | 1.11 | moderate increase | – |
| S268H: pMT12 with S268H (protein, Modified from pMT1) MPQEARTPQQQVTADEVGDWYDKFGEVYHLTLGESVHCGLWFPPDAPVPQDMELVTMSSQAQDRFTDYLIETLDPKAGQHLLDIGCGTGRPALKAARQRGIAVTGVAVSKEQIAAANRLAAGHGLTERLTFEVADAMRLPYEDESFDCAWAIESLDHMDRAKALGEAWRVLKPGGDLLVAEEVVTEELTEPETALFETLFALNVPPRLGEFFDIVSGAGFHTLSLKDLSADLAMTMNVFALGVYSRRAEFTERFGAEFVDGLLAGLGHAQETVIRKTRFFMATLRKPAV | 1.26 | moderate increase | – |
| mtaD: 5-methylthioadenosine/S-adenosylhomocysteine deaminase, auxiliary enzyme deaminating SAH (protein, UniProt Q9X034 1-406, looked up) 5-methylthioadenosine/S-adenos …: MIIGNCLILKDFSSEPFWGAVEIENGTIKRVLQGEVKVDLDLSGKLVMPALFNTHTHAPMTLLRGVAEDLSFEEWLFSKVLPIEDRLTEKMAYYGTILAQMEMARHGIAGFVDMYFHEEWIAKAVRDFGMRALLTRGLVDSNGDDGGRLEENLKLYNEWNGFEGRIFVGFGPHSPYLCSEEYLKRVFDTAKSLNAPVTIHLYETSKEEYDLEDILNIGLKEVKTIAAHCVHLPERYFGVLKDIPFFVSHNPASNLKLGNGIAPVQRMIEHGMKVTLGTDGAASNNSLNLFFEMRLASLLQKAQNPRNLDVNTCLKMVTYDGAQAMGFKSGKIEEGWNADLVVIDLDLPEMFPVQNIKNHLVHAFSGEVFATMVAGKWIYFDGEYPTIDSEEVKRELARIEKELYSS | – | – | effect of supplementary auxiliary enzyme on pMT7 and pMT10 activity [3]: restored pMT7 and pMT10 activity |
| mtn: 5′-methylthioadenosine/S-adenosylhomocysteine nucleosidase, auxiliary enzyme hydrolysing SAH (protein, UniProt P0AF12 1-232, looked up) 5'-methylthioadenosine/S-adeno …: MKIGIIGAMEEEVTLLRDKIENRQTISLGGCEIYTGQLNGTEVALLKSGIGKVAAALGATLLLEHCKPDVIINTGSAGGLAPTLKVGDIVVSDEARYHDADVTAFGYEYGQLPGCPAGFKADDKLIAAAEACIAELNLNAVRGLIVSGDAFINGSVGLAKIRHNFPQAIAVEMEATAIAHVCHNFNVPFVVVRAISDVADQQSHLSFDEFLAVAAKQSSLMVESLVQKLAHG | – | – | effect of supplementary auxiliary enzyme on pMT7 and pMT10 activity [3]: restored pMT7 and pMT10 activity |

Source: patent US20240240209A1, “SYNTHESIS OF ENANTIOPURE CIS-A-IRONE FROM A RENEWABLE CARBON SOURCE” (Agency for Science, Technology and Research, priority 2021, published 2024)
